The values that follow come from patent publication US20240317865A1 (MOMENTA PHARMACEUTICALS, published 2024).

Experiment [1] deals with T1, recombinant human integrin alpha 11 beta 1 (α11β1) (human, UniProt Q9UKX5 23-1141; P05556 21-728).
T1 construct: Coated in ELISA; also called human α11β1; soluble human α11β1
Nature of the experiment: ELISA on plate-coated recombinant human α11β1, OD 450nm. The method, then:
0.25 μg/mL of target antigen (recombinant human or mouse α11β1) was plated in a 96-well plate over night at 4° C. Plates were washed (PBS with 0.1% Tween-20), blocked (PBS with 2% BSA and 0.05% Tween-20) for 1 hour at room temperature and incubated with a range of antibody concentrations for 1 hour at room temperature. Subsequently, plates were washed and incubated with biotinylated anti-rabbit/mouse/human IgG in a 1:1000 dilution buffer and incubated for 1 hour at room temperature. After washing the plates, Streptavidin HRP was added at 1:200 in dilution buffer and incubated for 1 hour at room temperature. Ultra TMB ELISA substrate solution was added and the plates incubated for 5 minutes on a plate shaker. The reaction was stopped by adding stop solution to each well and plates were read at 450 nm.
For orientation: ELISA stands for enzyme-linked immunosorbent assay.

Experiment [2] has as its target T2, α11β1 on human myofibroblasts (MF) (human, UniProt Q9UKX5 23-1188; P05556 21-798).
T2 construct: whole, on cells; Human pulmonary fibroblasts treated with TGFβ
Nature of the experiment: FACS (PE) on human myofibroblasts, histogram.

Experiment [3] concerns the target α11β1 on CHO-K1 cells stably expressing human α11 (CHO-K1 hu α11) (human, UniProt Q9UKX5 23-1188). Briefly: cell-based or functional assay.
Experiment [4] concerns the target T1, recombinant human integrin alpha 11 …. Briefly: SPR (Biacore T200), HIS-tagged human α11β1 captured by anti-HIS antibody, single-cycle kinetics, 1:1 Langmuir fit. The method, then: The affinity of antibodies for human α11β1 was measured by surface plasmon resonance assay (SPR). Affinity was measured at pH 7.6 and 25° C. with a Biacore T200 instrument. Anti-HIS antibody was immobilized on the SPR sensor surface using EDC/NHS covalent attachment. HIS-tagged human α11β1 was captured on the sensor surface and a single-cycle kinetics assay was used. Increasing concentrations of test antibody were injected in series over the sensor-bound α11β1. Dissociation was monitored for 1000 seconds. A sensor surface with only anti-HIS antibody and a series of blank injections were used to double-reference subtract the data. A 1:1 Langmuir model was fit to the data to estimate the kinetic association and dissociation constants. The affinity (equilibrium dissociation constant) of the interaction was calculated by dividing the kinetic dissociation constant by the kinetic association constant. Between injection cycles α11β1 and bound antibody were removed with an injection of 10 mM glycine at pH 1.5.
The binding affinity of antibodies for the α11β1 Headpiece and α11β1 I Domain as measured by SPR is shown in FIG. 10A and FIG. 10B, respectively.
A general note: SPR reads the build-up and loss of mass on a sensor chip optically.

T1 sequence (Q9UKX5 23-1141 limits assumed, chain 1 of 2): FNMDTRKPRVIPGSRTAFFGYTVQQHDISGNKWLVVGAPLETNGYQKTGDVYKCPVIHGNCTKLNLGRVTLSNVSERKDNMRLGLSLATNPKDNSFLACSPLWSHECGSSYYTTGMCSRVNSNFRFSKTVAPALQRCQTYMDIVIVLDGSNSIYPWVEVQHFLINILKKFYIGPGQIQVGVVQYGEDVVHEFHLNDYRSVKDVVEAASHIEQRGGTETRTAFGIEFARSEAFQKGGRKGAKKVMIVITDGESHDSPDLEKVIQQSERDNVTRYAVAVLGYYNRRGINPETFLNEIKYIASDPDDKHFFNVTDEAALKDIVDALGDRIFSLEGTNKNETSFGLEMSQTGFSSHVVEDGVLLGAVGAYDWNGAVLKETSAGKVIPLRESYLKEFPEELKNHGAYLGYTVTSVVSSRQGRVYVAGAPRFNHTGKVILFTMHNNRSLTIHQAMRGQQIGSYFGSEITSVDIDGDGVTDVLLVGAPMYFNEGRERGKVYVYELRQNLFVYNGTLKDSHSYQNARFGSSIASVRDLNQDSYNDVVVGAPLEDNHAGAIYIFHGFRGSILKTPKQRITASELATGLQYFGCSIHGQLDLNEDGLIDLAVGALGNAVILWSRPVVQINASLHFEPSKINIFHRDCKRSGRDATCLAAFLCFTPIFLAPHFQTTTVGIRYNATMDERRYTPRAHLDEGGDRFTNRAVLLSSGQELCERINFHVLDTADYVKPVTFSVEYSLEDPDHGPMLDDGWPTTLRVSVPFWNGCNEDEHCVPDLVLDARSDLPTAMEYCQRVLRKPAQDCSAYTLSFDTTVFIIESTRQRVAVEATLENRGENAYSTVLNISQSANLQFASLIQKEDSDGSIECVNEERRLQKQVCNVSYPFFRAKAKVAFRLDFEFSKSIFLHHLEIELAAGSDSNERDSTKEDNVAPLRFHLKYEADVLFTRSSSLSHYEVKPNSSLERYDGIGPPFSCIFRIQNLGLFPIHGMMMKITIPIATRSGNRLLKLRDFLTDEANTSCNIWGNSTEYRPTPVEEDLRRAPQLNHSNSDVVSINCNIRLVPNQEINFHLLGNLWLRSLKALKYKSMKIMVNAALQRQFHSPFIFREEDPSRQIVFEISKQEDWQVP
T1 sequence (P05556 21-728 limits assumed, chain 2 of 2): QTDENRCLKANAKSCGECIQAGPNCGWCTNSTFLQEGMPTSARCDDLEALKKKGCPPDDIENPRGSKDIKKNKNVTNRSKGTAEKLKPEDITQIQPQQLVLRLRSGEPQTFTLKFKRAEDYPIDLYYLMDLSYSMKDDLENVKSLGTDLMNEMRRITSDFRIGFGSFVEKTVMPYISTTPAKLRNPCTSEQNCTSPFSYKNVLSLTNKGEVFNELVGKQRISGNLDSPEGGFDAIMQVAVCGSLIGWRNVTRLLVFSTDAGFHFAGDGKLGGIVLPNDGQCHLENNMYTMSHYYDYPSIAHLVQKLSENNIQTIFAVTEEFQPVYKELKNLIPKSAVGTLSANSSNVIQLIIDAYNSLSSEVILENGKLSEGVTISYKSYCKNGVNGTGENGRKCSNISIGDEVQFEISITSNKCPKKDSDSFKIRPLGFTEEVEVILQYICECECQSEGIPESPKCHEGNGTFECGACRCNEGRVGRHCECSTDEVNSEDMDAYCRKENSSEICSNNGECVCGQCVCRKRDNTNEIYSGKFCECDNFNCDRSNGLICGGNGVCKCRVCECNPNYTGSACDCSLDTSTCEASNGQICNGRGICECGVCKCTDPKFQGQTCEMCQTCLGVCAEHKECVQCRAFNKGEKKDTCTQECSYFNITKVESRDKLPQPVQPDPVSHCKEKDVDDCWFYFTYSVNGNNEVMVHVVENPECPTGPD
T2 sequence (Q9UKX5 23-1188, chain 1 of 2): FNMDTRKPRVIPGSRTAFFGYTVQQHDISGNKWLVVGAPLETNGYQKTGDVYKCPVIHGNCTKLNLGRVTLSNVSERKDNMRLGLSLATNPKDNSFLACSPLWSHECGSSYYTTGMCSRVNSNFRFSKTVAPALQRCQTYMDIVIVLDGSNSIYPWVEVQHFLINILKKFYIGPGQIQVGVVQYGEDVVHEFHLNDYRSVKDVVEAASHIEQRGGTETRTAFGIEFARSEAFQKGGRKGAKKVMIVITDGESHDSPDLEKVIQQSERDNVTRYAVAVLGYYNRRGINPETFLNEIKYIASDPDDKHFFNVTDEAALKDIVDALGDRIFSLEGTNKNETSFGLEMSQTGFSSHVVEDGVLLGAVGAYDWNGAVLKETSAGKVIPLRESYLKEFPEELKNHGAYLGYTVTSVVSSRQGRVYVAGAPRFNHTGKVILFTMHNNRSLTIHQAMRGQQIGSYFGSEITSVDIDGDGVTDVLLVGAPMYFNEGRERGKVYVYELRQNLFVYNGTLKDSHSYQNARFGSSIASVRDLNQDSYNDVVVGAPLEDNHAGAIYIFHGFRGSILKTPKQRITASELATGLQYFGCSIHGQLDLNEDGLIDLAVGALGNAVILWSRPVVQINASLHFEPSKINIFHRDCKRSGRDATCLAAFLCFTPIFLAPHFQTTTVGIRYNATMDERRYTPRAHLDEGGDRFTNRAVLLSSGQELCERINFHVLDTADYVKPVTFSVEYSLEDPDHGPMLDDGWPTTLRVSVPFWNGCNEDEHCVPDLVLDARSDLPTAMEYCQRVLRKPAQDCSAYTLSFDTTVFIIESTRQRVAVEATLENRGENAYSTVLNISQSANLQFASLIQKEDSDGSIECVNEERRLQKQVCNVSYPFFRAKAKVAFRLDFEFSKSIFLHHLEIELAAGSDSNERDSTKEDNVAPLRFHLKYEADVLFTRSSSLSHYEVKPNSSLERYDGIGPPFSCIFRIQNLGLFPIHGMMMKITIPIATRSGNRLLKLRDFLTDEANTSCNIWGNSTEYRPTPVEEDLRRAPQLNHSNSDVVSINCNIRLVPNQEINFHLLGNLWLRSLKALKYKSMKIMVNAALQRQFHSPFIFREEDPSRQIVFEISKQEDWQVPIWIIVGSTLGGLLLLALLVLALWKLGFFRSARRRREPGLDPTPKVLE
T2 sequence (P05556 21-798, chain 2 of 2): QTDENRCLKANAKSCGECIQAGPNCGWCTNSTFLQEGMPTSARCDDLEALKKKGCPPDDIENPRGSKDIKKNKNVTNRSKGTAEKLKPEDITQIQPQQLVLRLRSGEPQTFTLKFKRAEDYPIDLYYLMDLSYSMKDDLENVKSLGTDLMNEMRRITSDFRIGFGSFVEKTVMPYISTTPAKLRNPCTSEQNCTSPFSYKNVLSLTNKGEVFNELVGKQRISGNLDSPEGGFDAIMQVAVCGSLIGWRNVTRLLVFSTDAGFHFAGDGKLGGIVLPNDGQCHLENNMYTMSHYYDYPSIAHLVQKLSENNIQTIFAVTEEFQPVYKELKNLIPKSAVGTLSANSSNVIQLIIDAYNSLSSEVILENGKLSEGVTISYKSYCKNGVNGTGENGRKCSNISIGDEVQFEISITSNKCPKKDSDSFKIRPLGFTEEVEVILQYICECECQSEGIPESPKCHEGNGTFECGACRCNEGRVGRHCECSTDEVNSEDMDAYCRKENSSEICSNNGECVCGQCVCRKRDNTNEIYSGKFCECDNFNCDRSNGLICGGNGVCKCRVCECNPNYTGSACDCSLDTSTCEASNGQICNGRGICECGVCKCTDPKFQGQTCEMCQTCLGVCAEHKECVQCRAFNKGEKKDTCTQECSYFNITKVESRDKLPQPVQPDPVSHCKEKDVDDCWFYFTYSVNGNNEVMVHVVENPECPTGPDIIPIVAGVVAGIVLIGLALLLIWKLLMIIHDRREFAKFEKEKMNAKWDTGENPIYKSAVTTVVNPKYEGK
Chain of α11β1 on CHO-K1 cells stably expressing human α11 (CHO-K1 hu α11) (Q9UKX5 23-1188): as the sequence (Q9UKX5 23-1188, chain 1 of 2) above

B1: 8-J17 (antibody, V domains shown)
VH: QVQLQQSGAELAKPGASVKMSCKASGYTFTNYWMHWVKQRPGQGLEWIGYINPNNGYTEYNQRFKDKATLTADRSSTTAYMQLSSLTSEDSAVYYCARSDIITTDYWGQGTTLTVSS
VL: DVVMTQTPLSLPVSLGDQASISCRSSQSLVYSNGNTYLHWYLQKPGQSPKLLIYKVSNRFSGVPDRFSGSGSGTDFTLKISRVEAEDLGVYFCSQSTHVPWTFGGGTKLEIK
notes: mouse hybridoma IgG
For B1, the binding result in experiment [1] and in experiment [2] was “binds” in each case.

B2: A11B1_16E10 (antibody, V domains shown)
VH: QSLEESGGDLVKPGASLTLTCRVSGFSFSSSYYMCWVRQAPGKGLEWIACIGTTRGSTYYATWAKGRFTISKISSTTVTLQMTSLTDADTATYFCARDATGYRINTIGLYFNLWGPGTLVTVSS
VL: AFELTQTPSSVEAAVGGTPTIKCQASQTIYSYLSWYQQKPGQPPKLLIYEASKLASGVPSRFSGSGSGTDYTLTISDLECADAATYYCQSYHGTASTEYNTFGGGTEVVVRG
notes: rabbit monoclonal, recombinantly produced in HEK cells; full chains
A word on the koff: it is a measure of how fast the partners let go of each other. As a reminder, the kon is a measure of how fast the partners come together. As for B2, the “IC50, inhibition of adhesion of CHO-α11 cells to type I collagen, dose curve” value in experiment [3] is 390 pM. For the same molecule, in experiment [4], the koff came out at 0.000224 s⁻¹ and the kon worked out at 4.68e+06 M⁻¹ s⁻¹.
